Where “and” joins values, the source holds several entries; their conditions need not be identical. Identical values can stand only once.
What was measured:
[1] = target: FcgammaRIIB (CD32b), Y163 allotype (UniProt P31994); test: SPR
[2] = target: FcgammaRIIIA (CD16a), F158 allotype (UniProt P08637); test: SPR
[3] = target: neonatal Fc receptor (FcRn) (UniProt P55899); test: SPR pH 6.0, Ab captured on goat anti-human IgG, FcRn flowed

Chain of FcgammaRIIB (CD32b), Y163 allotype (P31994 43-217 limits assumed): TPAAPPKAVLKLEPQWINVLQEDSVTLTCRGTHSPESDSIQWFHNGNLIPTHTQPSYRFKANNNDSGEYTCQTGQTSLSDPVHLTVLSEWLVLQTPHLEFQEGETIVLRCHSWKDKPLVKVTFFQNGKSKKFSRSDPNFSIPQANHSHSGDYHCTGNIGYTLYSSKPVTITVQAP
Chain of FcgammaRIIIA (CD16a), F158 allotype (P08637 17-208 limits assumed): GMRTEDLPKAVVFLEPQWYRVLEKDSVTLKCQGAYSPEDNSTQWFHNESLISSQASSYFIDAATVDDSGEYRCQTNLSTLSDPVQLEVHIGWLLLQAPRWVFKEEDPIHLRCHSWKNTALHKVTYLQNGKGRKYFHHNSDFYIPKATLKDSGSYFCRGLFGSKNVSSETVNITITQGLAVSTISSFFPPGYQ

Kd [1] [nM]	Kd [2]	Kd [3] [nM]	Substance
1000			T350V_F405A_Y407V / T350V_T366L_K392M_T394W (antibody)
	460 nM	4100	Y349C_T350V_F405A_Y407V / T350V_S354C_T366L_K392M_T394W (antibody)
920	420 nM		Q347R_T350V_L351Y_S400E_F405A_Y407V / T350V_K360E_T366L_N390R_K392M_T394W (antibody)
990		3900	AZ3003 (A: T350V/L351Y/F405A/Y407V, B: T350V/T366L/K392L/T394W) (antibody)
890			T350V_L351Y_S400R_F405A_Y407V / T350V_T366L_K392M_T394W (antibody)
830	420 nM		T350V_L351Y_S400E_F405S_Y407V / T350V_T366L_N390R_K392M_T394W (antibody)
910			T350V_L351Y_S400E_F405A_Y407V / T350V_T366L_N390R_K392L_T394W (antibody)
1700		3700	Herceptin WT (wild-type IgG1 anti-HER-2/neu antibody)
710			T350V_L351Y_S400E_F405A_Y407V / T350V_L351Y_T366L_N390R_K392M_T394W (antibody)
	630 nM		Y349C_D399C_F405A_Y407V / S354C_T366L_K392C_T394W (antibody)
900	450 nM and 420 nM	5000	T350V_L351Y_S400E_F405A_Y407V / T350V_T366L_N390R_K392M_T394W (antibody)
	420 nM	5000	AZ133 (A: L351Y/F405A/Y407V, B: T366L/K392M/T394W) (antibody)
1200	580 nM		Y349C_F405A_Y407V / S354C_T366L_T394W (antibody)
1200	460 nM	4300	AZ3002 (A: T350V/L351Y/F405A/Y407V, B: T350V/T366L/K392M/T394W) (antibody)
1200	510 nM		D399C_F405A_Y407V / T366L_K392C_T394W (antibody)
	460 nM		AZ138 (A: F405A/Y407V, B: T366L/K392M/T394W) (antibody)
	480 nM		F405A_Y407V / T366L_T394W (antibody)
710			T350V_L351Y_S400E_F405A_Y407V / T350V_T366L_N390R_K392F_T394W (antibody)
1000	450 nM		T350V_S400E_F405A_Y407V / T350V_T366L_N390R_K392M_T394W (antibody)
890	420 nM		T350V_L351Y_S400R_F405A_Y407V / T350V_T366L_N390E_K392M_T394W (antibody)
940			T350V_L351Y_S400R_F405A_Y407V / T350V_T366L_N390D_K392M_T394W (antibody)
670			T350V_L351Y_S400E_F405T_Y407V / T350V_T366L_N390R_K392M_T394W (antibody)
950	420 nM		Y349C_T350V_L351Y_S400E_F405A_Y407V / T350V_S354C_T366L_N390R_K392M_T394W (antibody)
